From US20250154198A1, “PEPTIDE INHIBITORS OF INTERLEUKIN-23 RECEPTOR” (Zealand Pharma A/S, priority 2021, published 2025)
*1 amine or outer side, *2 acyl side, *3 side chain or, on linkers, in order; H or OH if unused. Bridges are numbered along the chain shown (N, C = ends). Primed or numbered codes have the meaning given here. Where no end group is shown, it is not given here. [ ]: non-standard residue; d: D form. 4‑Aminomethyl‑phenylacetyl = 4-aminomethyl-phenylacetyl unit, its amine closes the lactam, O=C(Cc1ccc(CN[*:1])cc1)[*:2]; 1,3‑dibromopropan‑2‑one(3) = linker giving 1,3-dithio-propan-2-one bridge -SCH2C(=O)CH2S- between Cys; 4‑Aminomethyl‑phenylacetyl″ = N-terminal cap residue, O=C(Cc1ccc(CN[*:1])cc1)[*:2]; 2Nal = N[C@@H](Cc1ccc2ccccc2c1)C(=O)O; AEF = NCCOc1ccc(C[C@H](N)C(=O)O)cc1; 3Pal = N[C@@H](Cc1cccnc1)C(=O)O; αMeL = CC(C)C[C@](C)(N)C(=O)O; CH2COCH2 = O=C(C[*:1])C[*:2]; αMeK = C[C@](N)(CCCCN)C(=O)O; 3Amb = NCc1cccc(C(=O)O)c1; Dab = NCC[C@H](N)C(=O)O

T1: human IL-23R endogenously expressed on DB cells (CRL-2289) (human, UniProt Q5VWK5 24-629)
T1 sequence (looked up): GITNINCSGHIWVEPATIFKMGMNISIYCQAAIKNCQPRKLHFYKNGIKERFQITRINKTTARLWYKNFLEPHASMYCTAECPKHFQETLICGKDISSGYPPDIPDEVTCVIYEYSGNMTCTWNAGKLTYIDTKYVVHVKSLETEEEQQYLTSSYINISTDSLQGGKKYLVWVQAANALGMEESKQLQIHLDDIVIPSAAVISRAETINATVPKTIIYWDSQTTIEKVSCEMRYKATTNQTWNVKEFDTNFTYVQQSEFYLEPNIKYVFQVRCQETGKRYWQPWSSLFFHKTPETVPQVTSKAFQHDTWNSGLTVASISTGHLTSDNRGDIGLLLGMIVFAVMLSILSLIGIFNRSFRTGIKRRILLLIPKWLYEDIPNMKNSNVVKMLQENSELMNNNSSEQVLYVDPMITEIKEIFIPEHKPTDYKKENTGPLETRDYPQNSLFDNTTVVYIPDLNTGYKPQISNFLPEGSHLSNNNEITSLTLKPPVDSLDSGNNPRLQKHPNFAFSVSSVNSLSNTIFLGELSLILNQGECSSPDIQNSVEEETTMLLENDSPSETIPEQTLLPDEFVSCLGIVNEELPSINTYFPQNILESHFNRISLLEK

T2: Nluc-IL23R fusion protein (human, UniProt Q5VWK5 22-629)
T2 construct: range 22-629; Stably expressed in HEK293 cells; also called hIL-23R; human IL-23R fused to a Nanoluc luciferase enzyme; not shown: Nanoluc luciferase (Promega N1371 plasmid) at the N-terminus
T2 sequence (looked up): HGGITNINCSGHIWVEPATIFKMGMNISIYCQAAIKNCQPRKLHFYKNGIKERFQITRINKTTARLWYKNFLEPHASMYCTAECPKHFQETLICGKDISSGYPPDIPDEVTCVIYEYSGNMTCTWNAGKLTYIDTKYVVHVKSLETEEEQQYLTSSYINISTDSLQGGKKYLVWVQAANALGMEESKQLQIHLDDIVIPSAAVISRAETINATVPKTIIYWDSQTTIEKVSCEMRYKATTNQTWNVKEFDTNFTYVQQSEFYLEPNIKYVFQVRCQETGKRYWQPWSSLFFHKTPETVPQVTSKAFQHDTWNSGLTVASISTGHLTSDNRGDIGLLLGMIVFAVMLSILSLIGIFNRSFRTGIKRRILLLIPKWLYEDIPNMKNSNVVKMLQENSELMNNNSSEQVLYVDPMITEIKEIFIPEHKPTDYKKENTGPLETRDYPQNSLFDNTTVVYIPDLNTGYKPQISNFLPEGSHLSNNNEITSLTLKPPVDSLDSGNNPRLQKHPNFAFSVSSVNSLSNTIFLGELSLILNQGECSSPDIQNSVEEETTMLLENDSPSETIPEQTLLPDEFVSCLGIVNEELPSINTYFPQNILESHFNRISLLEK

B1: Compound 80 (peptide)
peptide: [4‑Aminomethyl‑phenylacetyl]SCWQC[AEF][2Nal][αMeL]E[dR]-NH2
modifications: lactam (positions not given here); linker 3-6 via CH2COCH2; not fully specified (bridges); printed as [4-Aminomethyl-phenylacetyl](1c)*SC(2a)WQC(2a)[Y(2-aminoethoxy)][2-Nal][2-Me-Leu]E(1c)[{d}R]-[NH2]
B2: Compound 60 (peptide)
peptide: Ac-DESCWQCW[2Nal][αMeL]KG-NH2
modifications: lactam 2-11; linker 4-7 via CH2COCH2
SMILES: CC(=O)N[C@@H](CC(=O)O)C(=O)N[C@H]1CCC(=O)NCCCC[C@@H](C(=O)NCC(N)=O)NC(=O)[C@](C)(CC(C)C)NC(=O)[C@H](Cc2ccc3ccccc3c2)NC(=O)[C@H](Cc2c[nH]c3ccccc23)NC(=O)[C@@H]2CSCC(=O)CSC[C@H](NC(=O)[C@H](CO)NC1=O)C(=O)N[C@@H](Cc1c[nH]c3ccccc13)C(=O)N[C@@H](CCC(N)=O)C(=O)N2
B3: Compound 81 (peptide)
peptide: [4‑Aminomethyl‑phenylacetyl]SCWQC[AEF][2Nal][αMeL]ES-NH2
modifications: lactam (positions not given here); linker 3-6 via CH2COCH2; not fully specified (bridges); printed as [4-Aminomethyl-phenylacetyl](1c)*SC(2a)WQC(2a)[Y(2-aminoethoxy)][2-Nal][2-Me-Leu]E(1c)S-[NH2]
B4: Compound 122 (peptide)
peptide: [4‑Aminomethyl‑phenylacetyl″]SEWQ[Dab][AEF][2Nal][αMeL]E[Dab][3Pal]-NH2
modifications: lactam N-10, 3-6
SMILES: CC(C)C[C@]1(C)NC(=O)[C@H](Cc2ccc3ccccc3c2)NC(=O)[C@H](Cc2ccc(OCCN)cc2)NC(=O)[C@@H]2CCNC(=O)CC[C@H](NC(=O)[C@H](CO)NC(=O)Cc3ccc(cc3)CNC(=O)CC[C@@H](C(=O)N[C@@H](CCN)C(=O)N[C@@H](Cc3cccnc3)C(N)=O)NC1=O)C(=O)N[C@@H](Cc1c[nH]c3ccccc13)C(=O)N[C@@H](CCC(N)=O)C(=O)N2
B5: Compound 78 (peptide)
peptide: [3Amb]SCWQC[AEF][2Nal][αMeL]ER[3Pal]-NH2
modifications: lactam (positions not given here); linker 3-6 via CH2COCH2; not fully specified (bridges); printed as [(3-Aminomethyl)benzoyl](1c)*SC(2a)WQC(2a)[Y(2-aminoethoxy)][2-Nal][2-Me-Leu]E(1c)R[3-(3-Pyridyl)-Ala]-[NH2]
B6: Compound 59 (peptide)
peptide: Ac-DESCWQCW[2Nal][αMeL]KNG-NH2
modifications: lactam 2-11; linker 4-7 via CH2COCH2
SMILES: CC(=O)N[C@@H](CC(=O)O)C(=O)N[C@H]1CCC(=O)NCCCC[C@@H](C(=O)N[C@@H](CC(N)=O)C(=O)NCC(N)=O)NC(=O)[C@](C)(CC(C)C)NC(=O)[C@H](Cc2ccc3ccccc3c2)NC(=O)[C@H](Cc2c[nH]c3ccccc23)NC(=O)[C@@H]2CSCC(=O)CSC[C@H](NC(=O)[C@H](CO)NC1=O)C(=O)N[C@@H](Cc1c[nH]c3ccccc13)C(=O)N[C@@H](CCC(N)=O)C(=O)N2
B7: Compound 58 (peptide)
peptide: Ac-DESCWQCW[2Nal][αMeL]KENG-NH2
modifications: lactam 2-11; linker 4-7 via CH2COCH2
SMILES: CC(=O)N[C@@H](CC(=O)O)C(=O)N[C@H]1CCC(=O)NCCCC[C@@H](C(=O)N[C@@H](CCC(=O)O)C(=O)N[C@@H](CC(N)=O)C(=O)NCC(N)=O)NC(=O)[C@](C)(CC(C)C)NC(=O)[C@H](Cc2ccc3ccccc3c2)NC(=O)[C@H](Cc2c[nH]c3ccccc23)NC(=O)[C@@H]2CSCC(=O)CSC[C@H](NC(=O)[C@H](CO)NC1=O)C(=O)N[C@@H](Cc1c[nH]c3ccccc13)C(=O)N[C@@H](CCC(N)=O)C(=O)N2
B8: Compound 82 (peptide)
peptide: [4‑Aminomethyl‑phenylacetyl]SCWQC[AEF][2Nal][αMeL]E[Dab]-NH2
modifications: lactam (positions not given here); linker 3-6 via CH2COCH2; not fully specified (bridges); printed as [4-Aminomethyl-phenylacetyl](1c)*SC(2a)WQC(2a)[Y(2-aminoethoxy)][2-Nal][2-Me-Leu]E(1c)[Dab]-[NH2]
B9: Compound 61 (peptide)
peptide: Ac-DESCWQCW[2Nal][αMeK]KENG-NH2
modifications: lactam 2-11; linker 4-7 via CH2COCH2
SMILES: CC(=O)N[C@@H](CC(=O)O)C(=O)N[C@H]1CCC(=O)NCCCC[C@@H](C(=O)N[C@@H](CCC(=O)O)C(=O)N[C@@H](CC(N)=O)C(=O)NCC(N)=O)NC(=O)[C@](C)(CCCCN)NC(=O)[C@H](Cc2ccc3ccccc3c2)NC(=O)[C@H](Cc2c[nH]c3ccccc23)NC(=O)[C@@H]2CSCC(=O)CSC[C@H](NC(=O)[C@H](CO)NC1=O)C(=O)N[C@@H](Cc1c[nH]c3ccccc13)C(=O)N[C@@H](CCC(N)=O)C(=O)N2
B10: Compound 52 (peptide)
peptide: [4‑Aminomethyl‑phenylacetyl]SCWQC[AEF][2Nal][αMeL]ER-NH2
modifications: lactam N-10; linker 3-6 via CH2COCH2
SMILES: CC(C)C[C@]1(C)NC(=O)[C@H](Cc2ccc3ccccc3c2)NC(=O)[C@H](Cc2ccc(OCCN)cc2)NC(=O)[C@@H]2CSCC(=O)CSC[C@H](NC(=O)[C@H](CO)NC(=O)Cc3ccc(cc3)CNC(=O)CC[C@@H](C(=O)N[C@@H](CCCNC(=N)N)C(N)=O)NC1=O)C(=O)N[C@@H](Cc1c[nH]c3ccccc13)C(=O)N[C@@H](CCC(N)=O)C(=O)N2
B11: Compound 55 (peptide)
peptide: DEQCWQCYWXKR
HELM: PEPTIDE1{[ac].D.E.Q.C.W.Q.C.Y.W.[CC(C)C[C@](C)(N[*:1])C(=O)[*:2]].K.R.[am]}|CHEM1{[O=C(C[*:1])C[*:2]]}$PEPTIDE1,PEPTIDE1,3:R3-12:R3|PEPTIDE1,CHEM1,5:R3-1:R1|PEPTIDE1,CHEM1,8:R3-1:R2$$$V2.0
SMILES: CC(=O)N[C@@H](CC(=O)O)C(=O)N[C@H]1CCC(=O)NCCCC[C@@H](C(=O)N[C@@H](CCCNC(=N)N)C(N)=O)NC(=O)[C@](C)(CC(C)C)NC(=O)[C@H](Cc2c[nH]c3ccccc23)NC(=O)[C@H](Cc2ccc(O)cc2)NC(=O)[C@@H]2CSCC(=O)CSC[C@H](NC(=O)[C@H](CCC(N)=O)NC1=O)C(=O)N[C@@H](Cc1c[nH]c3ccccc13)C(=O)N[C@@H](CCC(N)=O)C(=O)N2

biological target: T1, human IL-23R endogenously expressed on …; assay: cell-based or functional assay

Compared with B1, B2 is higher in “IC50 (pSTAT3)” value: 10.5 nM for the first, 666 nM for the second.

Compared with [4‑Aminomethyl‑phenylacetyl]SCWQC[AEF][2Nal][αMeL]E[Dab][3Pal]-NH2 (lactam N-10; linker 3-6 via 1,3‑dibromopropan‑2‑one(3)) [Compound 120], B3 is higher in “IC50 (pSTAT3)” value: 54.2 pM for the first, 20.7 nM for the second.

Compared with B4, B5 is higher in “IC50 (pSTAT3)” value: 27.7 pM for the first, 0.132 nM for the second.

Going from B6 to B7, the “IC50 (pSTAT3)” value rises from 297 nM to 597 nM.

Compared with B8, [4‑Aminomethyl‑phenylacetyl]SEWQ[Dab][AEF][2Nal][αMeL]E[Dab]-NH2 (lactam N-10, 3-6) [Compound 125] is higher in “IC50 (pSTAT3)” value: 11.1 nM for the first, 21.2 nM for the second.

Going from B10 to [3Amb]SCWQC[AEF][2Nal][αMeL]E[dR]-NH2 (lactam N-10; linker 3-6 via CH2COCH2) [Compound 41], the “IC50 (pSTAT3)” value rises from 7.85 nM to 29.4 nM.

B9 and B11 cannot be ordered by “IC50 (pSTAT3)” value: > 1 µM for the first, > 1 µM for the second.

biological target: T2, Nluc-IL23R fusion protein; assay: BRET displacement of TAMRA-labelled peptide, Nluc-IL23R membranes

Compared with B1, [4‑Aminomethyl‑phenylacetyl]SCWQC[AEF][2Nal][αMeL]E[Dab][3Pal]-NH2 (lactam N-10; linker 3-6 via 1,3‑dibromopropan‑2‑one(3)) [Compound 120] is 16-fold lower in Ki: 0.15 nM for the first, 0.00938 nM for the second.

Going from B3 to B4, the Ki falls from 0.318 nM to 0.00541 nM (59-fold). The second binds more tightly here.

Compared with B5, B8 is 3.2-fold higher in Ki: 0.0205 nM for the first, 0.0665 nM for the second.

Going from [4‑Aminomethyl‑phenylacetyl]SEWQ[Dab][AEF][2Nal][αMeL]E[Dab]-NH2 (lactam N-10, 3-6) [Compound 125] to B10, the Ki falls from 0.599 nM to 0.0475 nM (13-fold). The second binds more tightly here.

For [3Amb]SCWQC[AEF][2Nal][αMeL]E[dR]-NH2 (lactam N-10; linker 3-6 via CH2COCH2) [Compound 41], the Ki was 2.31 nM.

biological target: T2, Nluc-IL23R fusion protein; assay: as above; remark: another data set of the same source
Experimental: The plate was sealed with light impermeable plate seals, and incubated on a orbital shaker 400 rpm for 2 hours at room temperature. To determine the BRET ratio, the plate seal was removed and 25 μL of the Nanoluc substrate (Promega N1572) diluted 1:500 was added to each well and incubated for 1-2 minutes on an orbital shaker at 400 rpm. […] The BRET ratio was calculated as the fluorescence from the TAMRA/nanoluc bioluminescence. The IC₅₀ for each compound was determined by computer-aided curve fitting using a 4-parameter logistic (4PL) non-linear model.

First: B2
Second: B6
The Ki of the first is 1.5-fold higher: 212 nM for the first, 139 nM for the second.

Going from B7 to B9, the Ki rises from 201 nM to 436 nM (2.2-fold). The first binds more tightly here.

B11 showed a Ki of 272 nM.
